Test in all cases: EnzChek phosphate release assay (PNP-coupled, A360)
Substrate in series [1]: Nc1ncnc2c1ncn2[C@@H]1O[C@H](COP(=O)(O)OP(=O)(O)OP(=O)(O)O)[C@@H](O)[C@H]1O
It counts as biochemical, Arabidopsis thaliana. To be noted: 37 °C, pH 7.5, 5 mM MgCl2, 15 μM enzyme, 0-2 mM ATP.

Substrate in series [2]: Nc1ncnc2c1ncn2[C@@H]1O[C@H](COP(=O)(O)OP(=O)(O)OP(=O)(O)O)[C@@H](O)[C@H]1O
The class given is biochemical, Saccharomyces cerevisiae. As to conditions: 37 °C, pH 7.5, 5 mM MgCl2, 2.5 μM enzyme, 0-2 mM ATP.

Substrate in series [3]: Nc1ncnc2c1ncn2[C@@H]1O[C@H](COP(=O)(O)OP(=O)(O)OP(=O)(O)O)[C@@H](O)[C@H]1O
It counts as biochemical, Nostoc sp. PCC 7120 = FACHB-418. To be noted: 37 °C, pH 7.5, 5 mM MgCl2, 15 μM enzyme, 0-2 mM ATP.

B1: AtGet3d (Arabidopsis thaliana) (protein)
chain: TKFVTFLGKGGSGKTTAAVFAAQHYALAGLSTCLVIHNQDPSAEFLLGSKIGTSPTLINDNLSVIRLETTKMLLEPLKQLKQADARLNMTQGVLEGVVGEELGVLPGMDSIFSMLELERLVGFFRQATRKNHKGKPFDVIIYDGISTEETLRMIGLSSKTRLYAKYLRSLAEKTDLGRLTSPSIMRFVDESMNINSNKSPFDGMTSPAMWDTLERFLETGASAWRDPERFRSFLVMDPNNPMSVKAALRYWGCTVQAGSHVSGAFAISSSHLTSQIPKADFVPLPFASASVPFTITGLDWDKILLDQANSSIRELLSETVSHGTSLTQTVMFDTAKKLVTLFMPGFEKSEIKLYQYRGGSELLIEAGDQRRVIHLPSQIQGKVGGAKFVDRSLIVTMR
notes: delta1-57 (chloroplast transit peptide removed), expressed in E. coli; ATPase assay: N-terminal His6-3C tag; crystal: pET22b(+) NdeI-XhoI construct; homodimer
As to B1, in series [1], the Km amounted to 351 ± 4 µM and the turnover number (kcat) was determined as 1.10 ± 0.01 min⁻¹.

B2: ScGet3 (yeast Get3) (Saccharomyces cerevisiae S288C) (protein)
chain: MDLTVEPNLHSLITSTTHKWIFVGGKGGVGKTTSSCSIAIQMALSQPNKQFLLISTDPAHNLSDAFGEKFGKDARKVTGMNNLSCMEIDPSAALKDMNDMAVSRANNNGSDGQGDDLGSLLQGGALADLTGSIPGIDEALSFMEVMKHIKRQEQGEGETFDTVIFDTAPTGHTLRFLQLPNTLSKLLEKFGEITNKLGPMLNSFMGAGNVDISGKLNELKANVETIRQQFTDPDLTTFVCVCISEFLSLYETERLIQELISYDMDVNSIIVNQLLFAENDQEHNCKRCQARWKMQKKYLDQIDELYEDFHVVKMPLCAGEIRGLNNLTKFSQFLNKEYNPITDGKVIYELEDKE
notes: N-terminal His6-TEV tag (pET33b), expressed in E. coli
Turning to B2, in series [2], the Km is 48 ± 2 µM and the kcat was determined as 2.7 ± 0.02 min⁻¹.

B3: NosGet3d (Nostoc sp. PCC 7120 = FACHB-418) (protein)
chain: MALILTFLGKSGVARTKIAIAAAKLLASQGKRVLLAGLAEPVLPLLLEQTLTPDPQQIAPNLEVVQFQSSVLLERNWEEVKKLEAQYLRTPIIKEVYGQELVVLPGMDSALALNAIREYDASGKYDAIVYDGTGDAFTLRMLGLPESLSWYVRRFRQLFVNSDLGKTIAESPLIQPLISSFFNVNWTADNFAQPTNQVNNFLDKGKEALADPKRVAAFLVTTADPLEVVSVRYLWGSAQQIGLTIGGVIQVSSQTEGDLSAEFTPLSVTVVPDVTKGDWQPLIDALPNFVEQAEQAPKPITIDTHNRQVRLFLPGFDKKQVKLTQYGPEVTVEAGDQRRNIFLPPALSGRPITGAKFQNNYLIISF
notes: N-terminal His6-TEV tag (pET33b), expressed in E. coli; homodimer
B3: in series [3], the Km was 353 ± 10 µM and the turnover number (kcat) was found to be 0.28 ± 0.01 min⁻¹.

The record behind these values is article PMC10248533, “Structures of Get3d reveal a distinct architecture associated with the emergence of photosynthesis” (The Journal of Biological Chemistry, 2023).
